Source: patent US20090203766, “vWF aptamer formulations and methods for use” (Archemix Corp., published 2009)

B1: ARC1779 oligonucleotide core (no PEG) (mixed)
mixed: GCGUGCAGUGCCUUCGGCCGTGCGGTGCCUCCGUCACGC
modifications: same 2'-OMe/deoxy/PS/3'-inverted dT pattern as ARC1779, 5'-OH instead of hexylamine-PEG
B2: ARC1779 (mixed)
mixed: GCGUGCAGUGCCUUCGGCCGTGCGGTGCCUCCGUCACGC
modifications: mGmCmGmUdGdCdAmGmUmGmCmCmUmUmCmGmGmCdCmG-s-dTmGdCdGdGdTmGmCdCmUdCdCmGmUdCmAmCmGmC-3T (m 2'-OMe; d deoxy; s PS; 3T inverted dT), 5'-20 kDa PEG

Assays:
[1] = molecular target: von Willebrand factor (vWF) (Homo sapiens, UniProt P04275 P04275:764-2813); assay: filter; text gives value as affinity of ARC1779 for vWF; PBS, 0.1 mg/ml BSA, room temperature 30 min; details: label: 5'-32P
Sequence of von Willebrand factor (vWF) (P04275 764-2813, one chain of several): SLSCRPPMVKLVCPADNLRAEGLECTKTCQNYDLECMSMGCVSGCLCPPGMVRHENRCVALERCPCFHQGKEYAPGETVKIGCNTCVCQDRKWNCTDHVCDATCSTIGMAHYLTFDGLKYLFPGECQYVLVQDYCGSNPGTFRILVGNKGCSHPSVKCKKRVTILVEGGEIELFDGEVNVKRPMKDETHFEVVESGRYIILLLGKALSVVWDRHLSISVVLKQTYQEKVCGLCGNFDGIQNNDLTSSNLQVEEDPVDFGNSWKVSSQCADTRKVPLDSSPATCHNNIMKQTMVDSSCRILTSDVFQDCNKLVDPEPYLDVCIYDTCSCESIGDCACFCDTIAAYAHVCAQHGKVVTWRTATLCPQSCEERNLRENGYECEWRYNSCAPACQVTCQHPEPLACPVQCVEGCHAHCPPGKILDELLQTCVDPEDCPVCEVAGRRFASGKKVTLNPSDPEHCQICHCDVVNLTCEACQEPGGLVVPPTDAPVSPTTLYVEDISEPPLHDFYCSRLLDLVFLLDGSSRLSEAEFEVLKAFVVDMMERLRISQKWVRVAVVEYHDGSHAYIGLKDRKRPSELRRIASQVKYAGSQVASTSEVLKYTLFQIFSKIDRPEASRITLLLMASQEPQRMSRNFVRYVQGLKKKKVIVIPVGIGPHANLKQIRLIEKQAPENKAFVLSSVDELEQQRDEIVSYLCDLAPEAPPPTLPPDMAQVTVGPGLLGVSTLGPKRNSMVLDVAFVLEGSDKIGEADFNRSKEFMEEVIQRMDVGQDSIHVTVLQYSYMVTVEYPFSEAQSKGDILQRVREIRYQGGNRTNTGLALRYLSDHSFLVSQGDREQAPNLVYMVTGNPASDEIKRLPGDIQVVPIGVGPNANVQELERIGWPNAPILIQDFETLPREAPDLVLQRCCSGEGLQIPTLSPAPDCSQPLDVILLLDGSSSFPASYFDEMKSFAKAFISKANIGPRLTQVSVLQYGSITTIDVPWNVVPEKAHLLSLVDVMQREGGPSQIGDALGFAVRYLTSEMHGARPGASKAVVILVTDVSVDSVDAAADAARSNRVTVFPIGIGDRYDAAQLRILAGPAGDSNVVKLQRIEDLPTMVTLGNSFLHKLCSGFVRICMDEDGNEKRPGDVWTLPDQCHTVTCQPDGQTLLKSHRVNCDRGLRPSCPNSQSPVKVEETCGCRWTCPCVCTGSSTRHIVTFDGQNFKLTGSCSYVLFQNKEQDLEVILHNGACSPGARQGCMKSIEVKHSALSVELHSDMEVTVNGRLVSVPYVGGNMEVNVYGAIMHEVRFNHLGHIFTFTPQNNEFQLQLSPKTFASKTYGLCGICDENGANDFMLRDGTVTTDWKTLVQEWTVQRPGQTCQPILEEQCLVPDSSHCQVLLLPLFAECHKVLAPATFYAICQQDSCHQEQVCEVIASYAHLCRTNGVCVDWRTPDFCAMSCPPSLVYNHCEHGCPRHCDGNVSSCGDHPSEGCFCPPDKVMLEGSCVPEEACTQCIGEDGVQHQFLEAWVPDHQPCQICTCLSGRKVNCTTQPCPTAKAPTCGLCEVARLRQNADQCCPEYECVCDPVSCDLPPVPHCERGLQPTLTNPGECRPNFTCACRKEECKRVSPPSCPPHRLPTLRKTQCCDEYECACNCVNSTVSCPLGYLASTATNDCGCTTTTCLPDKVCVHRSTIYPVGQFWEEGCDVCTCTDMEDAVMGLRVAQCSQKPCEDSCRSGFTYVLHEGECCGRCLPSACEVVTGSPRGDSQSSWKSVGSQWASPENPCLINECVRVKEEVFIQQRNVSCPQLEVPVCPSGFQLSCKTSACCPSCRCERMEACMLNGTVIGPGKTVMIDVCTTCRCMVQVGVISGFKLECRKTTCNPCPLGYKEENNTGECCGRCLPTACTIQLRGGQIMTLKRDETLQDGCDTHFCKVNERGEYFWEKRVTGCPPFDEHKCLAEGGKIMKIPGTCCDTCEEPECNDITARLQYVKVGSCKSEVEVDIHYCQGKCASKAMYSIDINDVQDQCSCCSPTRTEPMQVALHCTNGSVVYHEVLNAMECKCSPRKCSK
Experimental: For binding assays, the oligonucleotide core of ARC1779 was synthesized with a 5′-terminal hydroxyl moiety instead of a 5′ hexylamine and 20 kDa PEG and subsequently 5′-end labeled with γ-³²P ATP using T4 polynucleotide kinase (New England BioLabs, Beverly, Mass.). Aptamer was incubated at room temperature for 30 minutes in PBS containing 0.1 mg/ml BSA (as a specificity control) and increasing concentrations of human VWF. Bound complexes were separated from free DNA using an acrylic mini-dot blot apparatus (Schleicher and Schuell, Keene, N.H.) and a membrane sandwich (top to bottom) of Protran BA85 0.45 μm Nitrocellulose Membrane (Schleicher and Schuell, Keene, N.H.), Hybond P Nylon Membrane (Amersham, Piscataway, N.J.), and 3mM filter paper (Whatman, Florham Park, N.J.) all pre-wet with Dulbecco's PBS. Radioactivity associated with protein:DNA complexes (nitrocellulose) and free DNA (nylon) was quantified on a Storm 860 Phosphorimager (Molecular Dynamics/Amersham, Piscataway, N.J.). Binding constants were determined by fitting the fraction of aptamer bound as a function of the concentration of vWF.

[2] = molecular target: von Willebrand factor (vWF), A1 domain sites in plasma/blood (Homo sapiens, UniProt P04275 P04275:764-2813); assay: free vWF A1 sites activity ELISA, plasma after dosing of healthy volunteers, Emax fit; 0.22 ug/mL; EC90 151 nM; details: protein: extract
Sequence of von Willebrand factor (vWF), A1 domain sites in plasma/blood (P04275 764-2813, one chain of several): as above

Binder | Kd [1] | EC50 [2]
B1 | ~2 nM | 
B2 |  | 17 nM
